Key:
mouse ES cells = experiment: colony formation at clonal density, alkaline phosphatase staining; assay type: cell-based; conditions: transfected mouse ES cells, 5000 cells/cm^2, with or without LIF, 3 days
caspase-9 = molecular target: T1, caspase-9 (Homo sapiens, UniProt P55211); experiment: cleavage of immunoprecipitated mNanog by recombinant caspase-9; assay type: biochemical; conditions: protein immunoprecipitated from ES cells
T1 sequence (P55211 1-416): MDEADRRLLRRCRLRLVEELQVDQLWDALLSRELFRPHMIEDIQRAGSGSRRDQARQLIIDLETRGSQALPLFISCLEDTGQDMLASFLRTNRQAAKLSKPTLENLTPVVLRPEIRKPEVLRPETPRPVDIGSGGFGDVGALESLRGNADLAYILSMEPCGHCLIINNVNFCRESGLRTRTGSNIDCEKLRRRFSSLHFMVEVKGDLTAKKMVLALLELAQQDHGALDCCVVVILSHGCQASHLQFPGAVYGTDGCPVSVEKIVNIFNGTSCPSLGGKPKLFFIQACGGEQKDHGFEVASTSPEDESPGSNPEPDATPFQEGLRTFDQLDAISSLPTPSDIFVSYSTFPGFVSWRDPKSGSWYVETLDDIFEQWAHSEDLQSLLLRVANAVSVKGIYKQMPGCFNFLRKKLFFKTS

B1: D67G mNanog: caspase cleavage-resistant mutant of mouse Nanog, mutation at position 67 (protein)
chain: MSVGLPGPHSLPSSEEASNSGNASSMPAVFHPENYSCLQGSATEMLCTEAASPRPSSEDLPLQGSPGSSTSPKQKLSSPEADKGPEEEENKVLARKQKMRTVFSQAQLCALKDRFQKQKYLSLQQMQELSSILNLSYKQVKTWFQNQRMKCKRWQKNQWLKTSNGLIQKGSAPVEYPSIHCSYPQGYLVNASGSLSMWGSQTWTNPTWSSQTWTNPTWNNQTWTNPTWSSQAWTAQSWNGQPWNAAPLHNFGEDFLQPYVQLQQNFSASDLEVNLEATRESHAHFSTPQALELFLNYSVTPPGEI
Question: For B1, which “number of undifferentiated (AP-positive) colonies” value (mouse ES cells) is on record?
Answer: Its value is “substantially increased”.

Question: And the “cleavage by caspase-9” value (caspase-9)?
Answer: The value was “greatly diminished cleavage”.
